Three molecules from publication PMC10434240, “An Atypical F-Actin Capping Protein Modulates Cytoskeleton Behaviors Crucial for Trichomonas vaginalis Colonization” (Microbiology Spectrum, 2023) can be followed below.

Substitutions are numbered along the chain they refer to.

To fix the notation:
T1: HA-TvFACPα(S2A) (Trichomonas vaginalis, UniProt A2FE30 1-261, S2A)
T1 construct: T. vaginalis F-actin capping protein subunit α (TvFACPα), TVAG_470230; source: transgenic T. vaginalis TH17 trophozoites (Flp-HA-TvFACPα(S2A) plasmid), overexpressed, in lysate
T1 sequence: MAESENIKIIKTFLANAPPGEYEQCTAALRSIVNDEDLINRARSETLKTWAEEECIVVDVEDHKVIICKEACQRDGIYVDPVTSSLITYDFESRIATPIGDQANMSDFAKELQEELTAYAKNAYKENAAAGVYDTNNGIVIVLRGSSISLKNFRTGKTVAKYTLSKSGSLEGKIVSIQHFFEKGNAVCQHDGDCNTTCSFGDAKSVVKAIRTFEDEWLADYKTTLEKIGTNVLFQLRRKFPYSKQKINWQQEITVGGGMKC

B1: α-actin (endogenous T. vaginalis) (natural protein)
chain: not shown
notes: T. vaginalis α-actin detected by anti-α-actin antibody; other actin genes of the parasite may be detected too; also called F-actin; TvActin; source: endogenous, T. vaginalis TH17 lysate
B2: Alexa Fluor 555-His-TvFACPα (natural protein)
chain: T1 sequence with A2S
modifications: Alexa Fluor 555 maleimide label (residue not stated)
notes: T. vaginalis F-actin capping protein subunit α (TvFACPα), TVAG_470230, 267 amino acids; m6 after dye labelling; source: recombinant from pET28-His-TvFACPα, purified, labelled with Alexa Fluor 555 maleimide
B3: HA-TvFACPα (natural protein)
chain: T1 sequence with A2S
notes: T. vaginalis F-actin capping protein subunit α (TvFACPα), TVAG_470230, 267 amino acids; source: transgenic T. vaginalis TH17 trophozoites (Flp-HA-TvFACPα plasmid), overexpressed, in lysate

For one test, the target named is T1, HA-TvFACPα(S2A). The test can be described thus: co-IP; anti-HA agarose beads on lysates of TH17 trophozoites overexpressing HA-TvFACPα or its mutants (1% Triton X-100, 5 mM EDTA in TBS, 4°C overnight); Western blotting for α-actin and α-actinin; also after DMSO or TBB (CKII inhibitor) treatment. The following applies: partners not purified. On the technique in general: In western blotting, separated proteins are transferred to a membrane and probed.

Test [1] has as its target T2, tagless recombinant TvActin (rTvActin) (Trichomonas vaginalis, UniProt P90623 1-376).
T2 construct: T. vaginalis α-actin (TvActin), TVAG_337240; Monomeric (G-) in G-buffer, polymerised (F-) in F-buffer; the assay's format tells which; 10% pyrene-labelled in the pyrene assay and 10% Alexa Fluor 488-labelled in TIRF microscopy; also called G-rTvActin; F-rTvActin; source: E. coli BL21, GST-TvActin cleaved with thrombin, purified (heparin-Sepharose, Sephacryl S-300 gel filtration)
As to the kind of experiment: TIRF microscopy; 6 μM G-rTvActin (10% Alexa Fluor 488-labelled) polymerising in TIRF buffer on NEM-myosin II-coated flow cell with 300 nM His-TvFACPα; Alexa Fluor 555-His-TvFACPα seen at the barbed end. The note with it: both partners purified.

The target in test [2] is B1. The test can be described thus: co-sedimentation; actin fractionation of trophozoite lysates (Cytoskeleton Inc. kit): 100,000 × g for 1 h, F-actin and associated proteins in the pellet; Western blotting; nontransgenic and transgenic TH17, flagellate and amoeboid forms, DMSO or TBB, T1 isolate. The following applies: partners not purified.

Turning to B1, in the test with HA-TvFACPα(S2A), the “fold change of coimmunoprecipitated α-actin signal against HA-TvFACPα” value was determined as 3 fold.

B2: the binding result in test [1] was “binds”.

On to B3, for which the “fold change of cosedimented level against endogenous TvFACPα in the nontransfectant” value in test [2] was about 2 fold.
